Data set [1] concerns MS2 coat protein. Put plainly: apparent KD of MS2 coat protein, switch ON state; designed switch direction (-1 OFF switch, 1 ON switch): -1; higher = weaker reporter binding. Conditions: FMN input: 0 or 200 uM; Eterna round: R93 (includes R88 designs). The method, boiled down: (§1)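 Each design's apparent KD comes from the median of binding-curve fits to its normalised clusters. Those clusters carried RNA switches transcribed on-chip from Illumina sequencing clusters. SNAP-549-labelled MS2 coat protein was titrated onto them in twofold steps (0.7 or 1.5 nM to 3 µM; per step 0.8–1.5 h down to 10–20 min). Conditions were 100 mM Tris-HCl pH 7.5, 80 mM KCl, 4 mM MgCl2, without or with constant ligand.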

The subject of data set [2] is MS2 coat protein. Nature of the data set: apparent KD of MS2 coat protein, switch OFF state (with FMN for OFF switches, without FMN for ON switches); designed switch direction (-1 OFF switch, 1 ON switch): -1; higher = weaker reporter binding. Conditions: FMN input: 0 or 200 uM; Eterna round: R93 (includes R88 designs). The method, boiled down: as §1

As to “AAUAAGUGAGGAUAUGUGAAUAGUAGAUAAGAUUCCCUAAAACAGAAGGCACAUGAGGAUCACCCAUGUAAAUA [JR_Exc004_Sub008]”, the “apparent KD of MS2 coat protein” value in data set [1] was 26.2 nM; in data set [2] it was 24.1 nM.
For “AAUAGUGAAGGAUAUACUGGAGGAGUACGAUAAAAGAAAGAACAUGAGGAUCACCCAUGUAGAAGGUCAGAAGU [JR_Exc002_Sub1227]”, the “apparent KD of MS2 coat protein” value in data set [1] was found to be 22.9 nM; in data set [2] it was 24.1 nM.
For “ACAAAGUGAGGAUAUGCUAUCGUACAAUAUAGUUAUCGUAUGCAGAAGGCACAUGAGGAUCACCCAUGUAAGAA [Ex 4 Tesla 9]”, in that order: 40.7 nM and 36.7 nM.
On to “ACAAGAUCAGGAUAUACAUGAGGAUCACCCAUGUAUAUCAAAAAGGGACUUACUUAAUGUAGAAGGGAUCAUGU [EX3 280: Random 16]”, for which the results for the “apparent KD of MS2 coat protein” value in data set [1] and in data set [2] were 12.7 nM and 13.9 nM, respectively.
For “ACGUACUCAGGAUAUACGAACAUGUCAAAAGACGUGAAGGGACAUGAGGAUCACCCAUGUAGAAGGGAGUACGA [Mat - Exclusion 2 - JL mod - D6]”, in that order: 33.6 nM and 148 nM.
The matching figures for “ACGUCGGGAGGAUAUACAUGAGGAUCACCCAUGUAAAGCGGGAAAGACGUUUAGUCGAGUAGAAGGCCUGAAGU [JR_Exc003_Sub1709]”: 26.1 nM and 45.5 nM.
For “ACUAAACGAGGAUAUACUAACGAACCUCAAACAUAGAUAAGACAUGAGGAUCACCCAUGUAGAAGGCGUAGACU [JR_Exc002_Sub008]”, the “apparent KD of MS2 coat protein” value was found to be 74.6 nM in data set [1] and 59.7 nM in data set [2].
The matching figures for “ACUAAUGAAGGAUAUACAAACAAAAAAAAAACAACAAACAAACAUGAGGAUCACCCAUGUAGAAGGUCAAAAAU [JR_Exc002_Sub1202]”: 22.2 nM and 17.8 nM.
The matching figures for “AGAAAACAUGAGGAUCACCCAUGUGAGGAUAUCGAAAAGAAAAGAAAAGAAAGAAGAAUGAGAAGGCACAAGAA [Khaba]”: 29.5 nM and 28.1 nM.
For “AGAAAACAUGAGGAUCACCCAUGUGAGGAUAUCGAUGUCCAAAAAAAAGUGCGGGACUCGAGAAGGCACUUGGG”, in that order: 38.9 nM and 33.7 nM.
As to “AGAAAACAUGAGGAUCACCCAUGUGAGGAUAUCUAAAAGAAAAGAAAAGAAAGAAGAAGGAGAAGGCACAAGAA [Sanakhte]”, the “apparent KD of MS2 coat protein” value in data set [1] was 37.4 nM; in data set [2] it was 29.4 nM.
The matching figures for “AGAAAGUCAGGAUAUACGAAAAAAAAGGGAAACAACAAGGGACAUGAGGAUCACCCAUGUAGAAGGGACAAGAA [Diamond 98]”: 92.8 nM and 140 nM.
For “AGAAAGUGAGGAUAUACAGAUAAAAAAACGAAAAAAAAUCUGUAGAAGGCACAUGAGGAUCACCCAUGUAAAGA [Mat - Exclusion 4 - Mayanna - D108]”, the results for the “apparent KD of MS2 coat protein” value in data set [1] and in data set [2] were 37.9 nM and 37.1 nM, respectively.
For “AGAAAUGUAGGAUAUACAUGAGGAUCACCCAUGUGGGAGGAGGAGCAAACAAGACGAGGUAGAAGGACAACGAC [JR_Exc003-Sub903]”, in that order: 73.5 nM and 79.2 nM.
On to “AGCAAACAUGAGGAUCACCCAUGUUAGGAUAUGAACGAAAUAAAAUAAAAAUAAAAGUUCAGAAGGGACGAGCA [Mat - Exclusion 1 - Eli mod - D27]”, for which the entries for the “apparent KD of MS2 coat protein” value in data set [1] and in data set [2] were 22.4 nM and 37.1 nM, respectively.
On to “AGCAAGUUAGGAUAUGCGAAGUCAGGACACACACUGACGAAGCAGAAGGAACAUGAGGAUCACCCAUGUAAGCA [JR_Exclusion-4 65% 4]”, for which the “apparent KD of MS2 coat protein” value stood at 22 nM in data set [1] and 16.6 nM in data set [2].
For “AGCACGGUAGGAUAUACGAACAAAACGGGAGAACUAAAGGGACAUGAGGAUCACCCAUGUAGAAGGACCAAGCA [Diamond 90]”, in that order: 42 nM and 119 nM.
For “AGCACGUCAGGAUAUACGAAAAAAAAGGGAAACAACAAGGGACAUGAGGAUCACCCAUGUAGAAGGGACUAGCA [Diamond 97]”, in that order: 49.4 nM and 44.3 nM.
The matching figures for “AGCUAGUCAGGAUAUACGAAAAUGACAGAAGACGUAAGGGAACAUGAGGAUCACCCAUGUAGAAGGGACUAGCA [Diamond 42]”: 26.6 nM and 67.7 nM.
For the sequence “AGCUAGUCAGGAUAUACGAACAUGUCAAAAGACGUGAACGGACAUGAGGAUCACCCAUGUAGAAGGGACUAGCA [Diamond 5]”, the entries for the “apparent KD of MS2 coat protein” value in data set [1] and in data set [2] were 16.2 nM and 17.5 nM, respectively.

These data come from the supplement of paper PMC9170038.
